Source: a protein production outcome set (Wang et al. 2014)

Assay: label from the status in PepcDB records

Row | Sequence | protein production
1 | MVKIAASILACDLARLADEVKRVEEHVDMIHFDVMDGHFVPNISFGLPVLKALRKETKLPISVHLMITNPEDYIDRFIEEGADMVAIHYESTFHLHRLVHRVKDLGARAFVAINPHTPINLLSEIITDVDGVLVMSVNPGFSGQRFIARSLEKIRNLRKMVKELGLETEIMVDGGVNEENASILVKNGATILVMGYGIFRNDNYVELIKSIKQEREEFAD | not failed
2 | MVKKMKSKTISTIHIDTFSIPFPFVAMSNKVCRGYTLIRAFGITALAILILVGIAGAAPFAYVTNIGDYDQRGPNVAVIDTATNNVTARVPLGGGWPVGVAVNPAGTKIYVVDSPSDSTVYVIDTATNKVSAKVNLGSSYPARITFNPAGTRVYVTKQHDYTDIFVINPATNTLMAPIIVGPSTYGIAFTPDGKKIYAANCNNNTIYVIDAATNKVTANISVGDSPCGIAVTPDGKKVYVLNYDSNTVSVINTATDNVIATVPVGNSPNLVAVTSNGNKVYVANNNTVSVIDTATNNVIATIPVGTSSRKIVINPDGNRVYLVNFGSNSVSVIDTATDNVIANVPVGEQPMGIAVTPDGKRVYVTNSRSSNVSVIDTATDTVAATVNAGILPTGVVIVPLTDSDMTSQSTGAISSSTEDRGIEVTNISSSEEINAVELNNYSDENNPESDNDNGSNANDSSKNNSTPGFGLLESLAGLYVGWKLGKR | failed
3 | MVKKNVGLRFLSILILMALLIGNVQSFNVAAAEGVIVNGTQFKDTSGNVIHAHGGGMLKHGDYYYWYGEYRDDSNLFLGVSCYRSKDLVNWEYRGEVLSRNSAPELNHCNIERPKVMYNASTGEFVMWMHWENGINYGQARAAVAYSKTPDGKFTYIRSFRPMQDTGVMDHGLPGYMSRDCNVFVDTDGKGYFISAANENMDLHLYELTPDYKNIASLKAKLFVGQQREAPCLIKRNGYYYLITSGCTGWNPNQAKYAYSKDLASGWSQLYNLGNSTTYRSQPTFIIPVQGSSGTSYLYMGDRWAGAWGGKVNDSQYVWLPLNFISDTTLELPYYDSVKIDASSGIISEYIPDTTRYKLVNKNSGKVLDVLDGSVDNAAQIVQWTDNGSLSQQWYLVDVGGGYKKIVNVKSGRALDVKDESKEDGGVLIQYTSNGGYNQHWKFTDIGDGYYKISSRHCGKLIDVRKWSTEDGGIIQQWSDAGGTNQHWKLVLVSSPEPSPSPSPQVVKGDVNGDLKVNSTDFSMLRRYLLKTIDNFPTENGKQAADLNGDGRINSSDLTMLKRYLLMEVDL | failed
4 | MVKMAKMANKFKELDRTAEEKYKKGRISFRVGRFEDALAAYGEAASAWKEMADLLFDKGKETRGKEFLEKARDAKSCYGMALFKLERYEEALEIVDADLKLKPENPTRWSNRGFVLSALGRNEEALEAFEKALAFDPKSPKILTSQGIVYFKMGFLKKSLETFDRALATEPRKASDWACKIPRFSFFSRNKAPIMKPDNIETWYWKGNVLLELGEKEKALNSFRKALESDPDHLNSLLSGGDLLCEFAEYGEAFKCYVRALKLSPGNEAAEKGKEFCEAKINE | failed
5 | MVKPMHLFAVVDALEQAQQFQQVLASRDVSTELVQIEQLNARFLRHHPELALCVDLDGLWLSANGMKMQPDWQAEIPRLKRASLKSEMIARACQINEQPSLIDATAGLGHDSLLMAYLGAHVTLVERHPVLFTLLEDAKSKAENDPFLSKYMQRIHLIFQDAHYYLQQCNQDDRKVDVIYLDPMFPQRDQHHQVIKKQAQVKKQMQLLHLLLPEDGEMDLGDQLLPLAQQIASRVVVKRPKHAVFLNEQQPDHQWQGDACRFDAYFQISMLEHHHHHH | failed
6 | MVKQCSPAHNIFERVSKCYVEKQQPHDVSIPNIRLTVSATGLAFGSVHQANANQNQIACFYFSCNFSSKSNHHQSQAIVREEIQKNLRPVRIVGHQSMASSWRRSIGNVRSFIGNSMGGLRGGQSAASWVVAGTIAYFLWIKPEQDLKKEQEARAALAMADTNQYVEKRKPIADPQVTGLIYGNKNGTDKSED | failed
7 | MVKSYQRFEQAAAFGVIASNANCVWIPASSGNSNGSGPGQLITSALEDVNIWDIKTGDLVSKLSDGLPPGASDARGAKPAECTYLEAHKDTDLLAVGYADGVIKVWDLMSKTVLLNFNGHKAAITLLQFDGTGTRLISGSKDSNIIVWDLVGEVGLYKLRSHKDSITGFWCQGEDWLISTSKDGMIKLWDLKTHQCIETHIAHTGECWGLAVKDDLLITTGTDSQVKIWKLDIENDKMGGKLTEMGIFEKQSKQRGLKIEFITNSSDKTSFFYIQNADKTIETFRIRKEEEIARGLKKREKRLKEKGLTEEEIAKSIKESYSSFILHPFQTIRSLYKIKSASWTTVSSSKLELVLTTSSNTIEYYSIPYEKRDPTSPAPLKTHTIELQGQRTDVRSIDISDDNKLLATASNGSLKIWNIKTHKCIRTFECGYALTCKFLPGGLLVILGTRNGELQLFDLASSSLLDTIEDAHDAAIWSLDLTSDGKRLVTGSADKTVKFWDFKVENSLVPGTKNKFLPVLKLHHDTTLELTDDILCVRVSPDDRYLAISLLDNTVKVFFLDSMKFYLSLYGHKLPVLSIDISFDSKMIITSSADKNIKIWGLDFGDCHKSLFAHQDSIMNVKFLPQSHNFFSCSKDAVVKYWDGEKFECIQKLYAHQSEVWALAVATDGGFVVSSSHDHSIRIWEETEDQVFLEEEKEKELEEQYEDTLLTSLEEGNGDDAFKADASGEGVEDEASGVHKQTLESLKAGERLMEALDLGIAEIEGLEAYNRDMKLWQRKKLGEAPIKPQGNAVLIAVNKTPEQYIMDTLLRIRMSQLEDALMVMPFSYVLKFLKFIDTVMQNKTLLHSHLPLICKNLFFIIKFNHKELVSQKNEELKLQINRVKTELRSALKSTEDDLGFNVQGLKFVKQQWNLRHNYEFVDEYDQQEKESNSARKRVFGTVI | failed
8 | MVKTFRQREEDIVRCNRCGFCEEVCPTYKATGEEFSLARGRNRLMRQSMEGKLDLTKEPEINQHIYSCLLCGACVAACPSSVITDTLIKTARAEITRAKGQPFPIRMALRGVLANQRRLTLGAKVLRFYQRSGARWLARHIGFLNLMGSLGKAEGLLPAIPEKTLRVQLPQLLKKPMKPRHKVAYFAGCMINNFFTAVGEATLRVYQENDIEVVVPTSNCCGIPHEAYGDIEMQIKLAKENLDAFSRYEVEAIVTDCASCAHGLHSYAELLQDDPHYGPLAAQLAAKVKDASQYLVEIGFKKEMGPVNATVTYHDPCHAARGLKVKEQPREILKSIPGVKFVEMNESDWCCGGAGSYNVTHYELSRKILARKMDNFKKTGAEYLATSCPACLMQLAHGLDVYRLSGKAIHVMQILDQAYQNRAVRSKAKAG | failed
9 | MVKVAHVQLSSCCGCLVSLADTYEKLLDVLGAIDLVYSQTLADVREVPDDVDIILLEGSVCLSDHHAMEVALDSRKKAKILVALGACAATGNVTRFSKGNQPSKPVHDAFAPLTEVVKCDLAIPGCPPSPESIVAVVLAALNGDMEYLEPYAELAKYGSEACGCDLITKVINKSLCMGCGSCAAACPTRAVSMDAGRPLVDKEICIKCGSCSVQCPRIRFPDLIEKIE | failed
10 | MVKVLILGQGYVASTFVAGLEKLRKGEIEPYGVPLARELPIGFEDIKIVGSYDVDRAKIGKKLSEVVKQYWNDVDSLTSDPEIRKGVHLGSVRNLPIEAEGLEDSMTLKEAVDTLVKEWTELDPDVIVNTCTTEAFVPFGNKEDLLKAIENNDKERLTATQVYAYAAALYANKRGGAAFVNVIPTFIANDPAFVELAKENNLVVFGDDGATGATPFTADVLSHLAQRNRYVKDVAQFNIGGNMDFLALTDDGKNKSKEFTKSSIVKDILGYDAPHYIKPTGYLEPLGDKKFIAIHIEYVSFNGATDELMINGRINDSPALGGLLVDLVRLGKIALDRKEFGTVYPVNAFYMKNPGPAEEKNIPRIIAYEKMRIWAGLKPKWL | not failed
11 | MVLFVDFLLEWLEMMRTRVRETTYASYNSGIRQSIIPYFMDKKLTLTDIEENPKYLQDFYQHELSKGLSPNSVLRRHANIRKALQHAFHLGLIKSNPADRIERPKKQLEHHHHHH | failed
12 | MVLGEFAPWRLWSLAGSAKDWRGSKQPRAMTDLVTNQAWTLIDNGRAADALRLTTGPVALPQASAGLLMAHAAALKALGRTDEALTFNRRAVARAPGDRFSWYNLAATLGDLALDDEAEGAARKTIALGLDVPEVRLVLGKALQGLHRYDEAEATFVRALAARPSDATVHLNLAQLRWMRSGRSDEALAPLDAAIARHPADVTLRTIRSNVLTFAGDHAGADATLEDALTRAPGDLAVRIAAARAAGAVGDRARMLAHAREAARLAPGALESQTVLCEALLAAGQADVAARTAEALVAAAPDDQYALVLRNTAWRITGDAQGDLFRDYAALVRTDRLETPEGWDSLDAFLDALRDRMLELHDLKTHPLNQSLRGGSQVPSLDRSRDPLVQAFFACAHKAVARYIEALGAGEDPIRRRRASDFAFAGGWSVRLRSEGFHADHVHPRGWISSAFYLDLPGRFDDETTRAGWLRFGRPGCLTEPALEAEHFIKPERGTLALFPSCLWHGTQPFTDADHRLTIAFDVVPR | failed
13 | MVLLTMTKRLFKGLLAVSLAVSLHGGEVKEKKPVKPVKEDPQELAAKRVEAFSRFSNVVSEIEKKYVDKISISEIMTKAIEGLLSNLDAHSAYLNEKKFKEFQAQTEGEFGGLGITVGMRDGVLTVIAPLEGTPAYKAGVKSGDNILKINNESTLSMSIDDAINLMRGKPKTPIQITVVRKNEPKPLVFNIIRDIIKLPSVYVKKIKETPYLYVRVSGFDKNVTKSVLEGLKANPKAKGIVLDLRGNPGGLLNQAVGLSNLFIKEGVLVSQKGKNKEENLEYKANGRAPYTNLPIAVLVNGGSASASEIVAGALQDHKRAVIIGEKTFGKGSVQMLLPVNKDEAIKITTARYYLPSGRTIQAKGITPDIVIYPGKVPENENKFSLKEADLKHHLEQELKKIDDKTPNSKEADKDKKNEEEKEITPKMINDDIQLKTAIDSLKTWSIVDEKMDEKAPKKK | failed
14 | MVLPSGLALPPLEYTVALLAGTLVVTALLYALEPPINQRTVVALTPWMALGGALHAFHQPPIEAYRPVVTPLFGAPAVYLTTFVTLGVVWVTLTLFSVRRGHSETISRNLGYIGIGLLTVLLVIAVVMALESGLLGLIWPTIAVIVATVVTAVTVLAVALWRTPVVVRMRYAAPTVVFAHMLDGVSTAVGADVIGITERTPIPARIMEFAGTLPTAPYLGKGWLFVFVKLLVAIGVVFLLDDYLEEDPVEASLLLAVVTAVGIGPATNNIVLFLFSPV | failed
15 | MVLPSSHRILVVDDNAVTRYSVRRVLEHHQFVVEEAGTGGEGLVRLAAEAFAAVVLDVNLPDMSGFDIVRTLRAEPRTALLPVVHVSAASIATGDMITGLDAGADAYLIHPVDPNVLVATLRTLLRARNAEEALRLSEARFREIFEHIGAPIAVVDAQLHTQEANAAFQRLIGSATPCEAINVPGLDQCATVQALTAALGRRERWSGTLSILRDGAVRETEWRVSPYREPDLGLLFVEDVTEQRLREREQRQELDTATSELAHQIAERQRTEIQLLQAQKMEALGKLTGGIAHDFNNLLTSIISGLDMIQLAVESNRIERVPRLAEIATGSAHRAAALTQRMLAFARKQSLDAQPFDVNARVRSLEDMLRRSIGENIALELQLAEAPLVAIADANQLENVVLNLVINARDALQGHGTIRIQSAPHTAYNDPELEDGDYVAVNVIDDGSGIDPAILSQVFEPFFTTKPIGEGTGLGLSMTYGFARQSGGTARITSTLGSGTTVALLLPRGLTVGEALPPPPPNAPRGRSQRILLVDDTDVVRMMVSEVLSDAGYHVIEAENADGALAQLRADAQIDMVVSDVGLPGMNGRDMADVARDLRPGLPILFITGYAENAATRQEFLAEGMALLPKPFSLNDLLNTVSRMLG | failed
16 | MVLWHKKDRKLGKHLRSVLSVSNNSPLSPAAFSGFKAVIKGIEKERIAGVGKTEGIKNEKTAGVGKTEGIEKERIAGVGKTEGIENTEGTEKAGEIKNNEKIKKAEETENILEIEKTFRNKKKQGVSKGDVDKENSTAFLYNTEAKKLTFHGNIYEILPLFLNVRNLYASLPFFEELQACAERLEKDPQDATALFQKAVLMYKARRFETALQLTAKVLKIIPDDHRVWYNRGVILSEMGRLEEAIAAYDRTIELEPAFEIAWDNKGVVLARLGRFEEALEIYDKILQKFPEYAEAWAGKGSIFLALDREEEALEAYSSALRIRPEYLEALTSTGSLLSRLGRYEESLKIYDKALQLVPKDPRLLAAKGFVLSEMGKQEEALENCNRALELQPGFVPALEIKVRILSEIGRQKNKTSQ | failed
